Laboratory results published in US20260207704A1, “STAPLED PEPTIDES AND METHODS THEREOF” (priority 2022, published 2026).
Blank lines part the entries; values can stand above or below the binder they belong to. *1 amine or outer side, *2 acyl side, *3 side chain or, on linkers, in order; H or OH if unused. Bridges are numbered along the chain shown (N, C = ends). Primed or numbered codes have the meaning given here. [ ]: non-standard residue; d: D form. B5(4) = 2-amino-2-(pent-4-en-1-yl)hept-6-enoic acid, stapled through each of its two olefin groups with other olefin-containing amino acid residues, O=C(C(CCCC=[*:3])(CCCC=[*:4])N[*:1])[*:2]; PyrS2″ = (S)-3-amino-1-((pent-4-en-1-yloxy)carbonyl)pyrrolidine-3-carboxylic acid (olefin stapling residue), C=CCCCOC(=O)N1CC[C@@](N[*:1])(C(=O)[*:2])C1; PyrS2 = (S)-3-amino-1-((pent-4-en-1-yloxy)carbonyl)pyrrolidine-3-carboxylic acid, olefin staple residue, C=CCCCOC(=O)N1CC[C@@](N[*:1])(C(=O)[*:2])C1; PyrS2(3) = (S)-3-amino-1-((pent-4-en-1-yloxy)carbonyl)pyrrolidine-3-carboxylic acid, olefin residue, C=CCCCOC(=O)N1CC[C@@](N[*:1])(C(=O)[*:2])C1; PyrS2(5) = (S)-3-amino-1-((pent-4-en-1-yloxy)carbonyl)pyrrolidine-3-carboxylic acid, C=CCCCOC(=O)N1CC[C@@](N[*:1])(C(=O)[*:2])C1; B5″ = 2-amino-2-(pent-4-en-1-yl)hept-6-enoic acid (bis-olefin stapling residue), C=CCCCC(CCCC=C)(N[*:1])C(=O)[*:2]; B5(5) = 2-amino-2-(pent-4-en-1-yl)hept-6-enoic acid (two olefin arms), C=CCCCC(CCCC=C)(N[*:1])C(=O)[*:2]; B5(3) = 2-amino-2-(pent-4-en-1-yl)hept-6-enoic acid, two olefin arms, C=CCCCC(CCCC=C)(N[*:1])C(=O)[*:2]; 2F3MeF″ = aromatic residue, Cc1cccc(C[C@H](N[*:1])C(=O)[*:2])c1F; Phe(3-COOH) = N[C@@H](Cc1cccc(C(=O)O)c1)C(=O)O; 2F3MeF = Cc1cccc(C[C@H](N[*:1])C(=O)[*:2])c1F; Bta = N[C@@H](Cc1csc2ccccc12)C(=O)O; αAllylPro = C=CC[C@@]1(C(=O)O)CCCN1; tBuAla = CC(C)(C)C[C@H](N)C(=O)O; Gly(cBu) = N[C@H](C(=O)O)C1CCC1; 3Thi = N[C@@H](Cc1ccsc1)C(=O)O; PyrS2(4) = not defined here; BztA″ = aromatic residue; CyLeu = not defined here; Nle = CCCC[C@H](N)C(=O)O; TfeGA = not defined here; dGlnR = not defined here; GlnR = not defined here; Cpg = not defined here; PL3 = not defined here; B5 = not defined here; Aib = CC(C)(N)C(=O)O

Columns and labels:
beta-catenin (human) [1] = test: fluorescence polarization
Sequence of beta-catenin (human) (B6V8E6 146-665 limits assumed): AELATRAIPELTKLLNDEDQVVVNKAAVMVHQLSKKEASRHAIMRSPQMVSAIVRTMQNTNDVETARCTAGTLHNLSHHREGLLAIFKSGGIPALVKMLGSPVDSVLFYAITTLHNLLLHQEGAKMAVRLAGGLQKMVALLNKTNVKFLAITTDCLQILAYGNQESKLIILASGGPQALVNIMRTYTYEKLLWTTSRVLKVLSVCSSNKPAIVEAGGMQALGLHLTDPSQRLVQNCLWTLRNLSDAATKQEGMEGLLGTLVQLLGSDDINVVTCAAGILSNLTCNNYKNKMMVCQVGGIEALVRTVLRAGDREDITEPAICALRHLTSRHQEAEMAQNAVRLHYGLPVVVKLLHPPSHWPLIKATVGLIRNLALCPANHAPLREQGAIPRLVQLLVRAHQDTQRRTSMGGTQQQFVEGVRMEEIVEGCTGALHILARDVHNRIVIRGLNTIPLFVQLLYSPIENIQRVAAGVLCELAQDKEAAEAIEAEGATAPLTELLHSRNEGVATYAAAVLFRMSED

beta-catenin (human) [2] = test: cell-based or functional assay

IC50 (beta-catenin (human) [1]): < 50 nM
NanoBRET Abs IC50 (bin >1.5 uM) (beta-catenin (human) [2]): < 3000 nM
B3: I-139 (peptide)
peptide: Ac-[αAllylPro]D[tBuAla][B5]D[Phe(3-COOH)][Cpg]AFK[PyrS2″][2F3MeF″][BztA″][GlnR]LS-NH2
modifications: bridge 10-14; not fully specified (bridges); printed as Ac-PL3-Asp-Npg-B5-Asp-3COOHF-Cpg-Ala-Phe-Lys*3-PyrS2-2F3MeF-BztA-GlnR*3-Leu-Ser-NH2; reading uncertain; also: Lys10 and GlnR14 marked *3

IC50 (beta-catenin (human) [1]): < 50 nM
NanoBRET Abs IC50 (bin >1.5 uM) (beta-catenin (human) [2]): < 3000 nM
B5: I-138 (peptide)
peptide: Ac-[αAllylPro]D[tBuAla][B5]D[Phe(3-COOH)][Aib]AFK[PyrS2″][2F3MeF″][BztA″][GlnR]LS-NH2
modifications: bridge 10-14; not fully specified (bridges); printed as Ac-PL3-Asp-Npg-B5-Asp-3COOHF-Aib-Ala-Phe-Lys*3-PyrS2-2F3MeF-BztA-GlnR*3-Leu-Ser-NH2; reading uncertain; also: Lys10 and GlnR14 marked *3

IC50 (beta-catenin (human) [1]): < 50 nM
NanoBRET Abs IC50 (bin >1.5 uM) (beta-catenin (human) [2]): < 3000 nM
B7: I-137 (peptide)
peptide: Ac-[αAllylPro]D[tBuAla][B5]D[Phe(3-COOH)][Nle]AFK[PyrS2″][2F3MeF″][BztA″][GlnR]LS-NH2
modifications: bridge 10-14; not fully specified (bridges); printed as Ac-PL3-Asp-Npg-B5-Asp-3COOHF-nLeu-Ala-Phe-Lys*3-PyrS2-2F3MeF-BztA-GlnR*3-Leu-Ser-NH2; reading uncertain; also: Lys10 and GlnR14 marked *3

IC50 (beta-catenin (human) [1]): < 50 nM
NanoBRET Abs IC50 (bin >3.0 uM) (beta-catenin (human) [2]): < 10000 nM
B9: I-126 (peptide)
peptide: Ac-[αAllylPro]D[tBuAla][B5(4)]D[TfeGA]AAFK[PyrS2″][2F3MeF][Bta][GlnR][Aib]-NH2
modifications: bridge 10-14; not fully specified (bridges); reading uncertain; also: Lys*3 and GlnR*3 marked *3

IC50 (beta-catenin (human) [1]): < 50 nM
NanoBRET Abs IC50 (bin >1.5 uM) (beta-catenin (human) [2]): < 3000 nM
B10: I-136 (peptide)
peptide: Ac-[αAllylPro]D[tBuAla][B5]D[Phe(3-COOH)]AAFK[PyrS2″][2F3MeF″][BztA″][GlnR]LS-NH2
modifications: bridge 10-14; not fully specified (bridges); printed as Ac-PL3-Asp-Npg-B5-Asp-3COOHF-Ala-Ala-Phe-Lys*3-PyrS2-2F3MeF-BztA-GlnR*3-Leu-Ser-NH2; reading uncertain; also: Lys10 and GlnR14 marked *3

IC50 (beta-catenin (human) [1]): < 50 nM
NanoBRET Abs IC50 (bin >3.0 uM) (beta-catenin (human) [2]): < 10000 nM
B12: I-129 (peptide)
peptide: Ac-[αAllylPro]D[tBuAla][B5(4)]D[TfeGA]AAFK[PyrS2(5)][2F3MeF][Bta][GlnR]V-NH2
modifications: bridge 10-14; not fully specified (bridges); reading uncertain; also: Lys*3 and GlnR*3 marked *3

IC50 (beta-catenin (human) [1]): < 50 nM
NanoBRET Abs IC50 (bin >3.0 uM) (beta-catenin (human) [2]): < 10000 nM
B14: I-127 (peptide)
peptide: Ac-[αAllylPro]D[tBuAla][B5(4)]D[TfeGA]AAFK[PyrS2″][2F3MeF][Bta][GlnR][Aib]-NH2
modifications: bridge 10-14; not fully specified (bridges); reading uncertain; also: Lys*3 and GlnR*3 marked *3

IC50 (beta-catenin (human) [1]): > 1000 nM
NanoBRET Abs IC50 (beta-catenin (human) [2]): > 10000 nM
B15: I-135 (peptide)
peptide: Ac-[αAllylPro]D[tBuAla][B5]D[Phe(3-COOH)][GlnR](29N2spiroundecane)AFL[PyrS2][2F3MeF][Bta][GlnR]A-NH2
modifications: staple 1-4, 4-11 (inferred); not fully specified; printed as Ac-PL3-Asp-Npg-B5-Asp-3COOHF-[29N2spiroundecane]GlnR-Ala-Phe-Leu-PyrS2-2F3MeF-BztA-GlnR-Ala-NH2; reading uncertain; also: staple C=C reduced to CH2-CH2

IC50 (beta-catenin (human) [1]): < 50 nM
NanoBRET Abs IC50 (beta-catenin (human) [2]): < 1500 nM
B17: I-140 (peptide)
peptide: Ac-[αAllylPro]D[tBuAla][B5]D[Phe(3-COOH)][Gly(cBu)]AFK[PyrS2″][2F3MeF″][BztA″][GlnR]LS-NH2
modifications: bridge 10-14; not fully specified (bridges); printed as Ac-PL3-Asp-Npg-B5-Asp-3COOHF-Cbg-Ala-Phe-Lys*3-PyrS2-2F3MeF-BztA-GlnR*3-Leu-Ser-NH2; reading uncertain; also: Lys10 and GlnR14 marked *3

IC50 (beta-catenin (human) [1]): < 50 nM
NanoBRET Abs IC50 (bin >1.5 uM) (beta-catenin (human) [2]): < 3000 nM
B18: I-141 (peptide)
peptide: Ac-[αAllylPro]D[tBuAla][B5]D[Phe(3-COOH)][CyLeu]AFK[PyrS2″][2F3MeF″][BztA″][GlnR]LS-NH2
modifications: bridge 10-14; not fully specified (bridges); printed as Ac-PL3-Asp-Npg-B5-Asp-3COOHF-CyLeu-Ala-Phe-Lys*3-PyrS2-2F3MeF-BztA-GlnR*3-Leu-Ser-NH2; reading uncertain; also: Lys10 and GlnR14 marked *3

IC50 (beta-catenin (human) [1]): > 1000 nM
NanoBRET Abs IC50 (beta-catenin (human) [2]): > 10000 nM
B20: I-470 (peptide)
peptide: Ac-[αAllylPro]E[tBuAla][B5(5)]E[Phe(3-COOH)][Aib]AFK[PyrS2(5)][3Thi][Bta][GlnR]A-NH2
modifications: bridge 10-14; not fully specified (bridges); printed as Ac-PL3-Glu-Npg-B5-Glu-3COOHF-Aib-Ala-Phe-Lys*3-PyrS2-3Thi-BztA-GlnR*3-Ala-NH2; reading uncertain

IC50 (beta-catenin (human) [1]): < 50 nM
NanoBRET Abs IC50 (bin >3.0 uM) (beta-catenin (human) [2]): < 10000 nM
B21: I-144 (peptide)
peptide: Ac-[αAllylPro]N[tBuAla][B5]D[Phe(3-COOH)][Aib]AFK[PyrS2″][2F3MeF″][BztA″][GlnR]LS-NH2
modifications: bridge 10-14; not fully specified (bridges); printed as Ac-PL3-Asn-Npg-B5-Asp-3COOHF-Aib-Ala-Phe-Lys*3-PyrS2-2F3MeF-BztA-GlnR*3-Leu-Ser-NH2; reading uncertain; also: Lys10 and GlnR14 marked *3

The next lines start with the binder.

B1: I-7 (peptide)
peptide: Ac-[αAllylPro]DL[B5(3)]DDKAF[GlnR][PyrS2(3)][3Thi][Bta]Q-NH2
modifications: bridge 7-10; not fully specified (bridges); printed as Ac-PL3-Asp-Leu-B5-Asp-Asp-Lys*3-Ala-Phe-GlnR*3-PyrS2-3Thi-BztA-Gln-NH2; reading uncertain
IC50 (beta-catenin (human) [1]): < 50 nM
NanoBRET Abs IC50 (beta-catenin (human) [2]): > 10000 nM

B2: I-6 (peptide)
peptide: XDLXDDAAFQXXXK
modifications: not fully specified; Ac-PL3-Asp-Leu-B5-Asp-Asp-Ala-Ala-Phe-GlnR*3-PyrS2-3Thi-BztA-Lys*3-NH2
IC50 (beta-catenin (human) [1]): < 50 nM
NanoBRET Abs IC50 (beta-catenin (human) [2]): > 10000 nM

B4: I-12 (peptide)
peptide: Ac-[αAllylPro]DL[B5″]D[Phe(3-COOH)]AAFK[PyrS2″][3Thi][Bta][GlnR]-NH2
modifications: bridge 10-14; not fully specified (bridges); printed as Ac-PL3-Asp-Leu-B5-Asp-3COOHF-Ala-Ala-Phe-Lys*3-PyrS2-3Thi-BztA-GlnR*3-NH2; reading uncertain; also: Lys*3 and GlnR*3 marked *3
IC50 (beta-catenin (human) [1]): < 50 nM
NanoBRET Abs IC50 (bin >3.0 uM) (beta-catenin (human) [2]): < 10000 nM

B6: I-10 (peptide)
peptide: Ac-[PL3]DL[B5]D[Phe(3-COOH)]AAFK[PyrS2(4)][3Thi][Bta][GlnR]-NH2
modifications: staple 1-4; bridge 10-14; not fully specified (residue 10); printed as Ac-PL3-Asp-Leu-B5-Asp-3COOHF-Ala-Ala-Phe-dLys*3-PyrS2-3Thi-BztA-GlnR*3-NH2; reading uncertain; also: PyrS2 tied into a staple, partner not placed
IC50 (beta-catenin (human) [1]): < 50 nM
NanoBRET Abs IC50 (beta-catenin (human) [2]): > 10000 nM

B8: I-4 (peptide)
peptide: Ac-[αAllylPro]DL[B5(5)]DDAAFK[PyrS2(5)][3Thi][Bta][GlnR]-NH2
modifications: bridge 10-14; not fully specified (bridges); printed as Ac-PL3-Asp-Leu-B5-Asp-Asp-Ala-Ala-Phe-Lys*3-PyrS2-3Thi-BztA-GlnR*3-NH2; reading uncertain
IC50 (beta-catenin (human) [1]): < 50 nM
NanoBRET Abs IC50 (beta-catenin (human) [2]): > 10000 nM

B11: I-5 (peptide)
peptide: XDLXDDAAFQXXXK
modifications: not fully specified; Ac-PL3-Asp-Leu-B5-Asp-Asp-Ala-Ala-Phe-DGlnR*3-PyrS2-3Thi-BztA-Lys*3-NH2
IC50 (beta-catenin (human) [1]): < 50 nM
NanoBRET Abs IC50 (beta-catenin (human) [2]): > 10000 nM

B13: I-13 (peptide)
peptide: Ac-[αAllylPro]DL[B5(4)]D[Phe(3-COOH)]AAF[dGlnR][PyrS2″][3Thi][Bta]K-NH2
modifications: bridge 10-14; not fully specified (bridges); printed as Ac-PL3-Asp-Leu-B5-Asp-3COOHF-Ala-Ala-Phe-DGlnR*3-PyrS2-3Thi-BztA-Lys*3-NH2; reading uncertain; also: DGlnR*3 and Lys*3 marked *3
IC50 (beta-catenin (human) [1]): < 50 nM
NanoBRET Abs IC50 (bin >3.0 uM) (beta-catenin (human) [2]): < 10000 nM

B16: I-8 (peptide)
peptide: XDLXDDQAFKXXXQ
modifications: not fully specified; Ac-PL3-Asp-Leu-B5-Asp-Asp-GlnR*3-Ala-Phe-Lys*3-PyrS2-3Thi-BztA-Gln-NH2
IC50 (beta-catenin (human) [1]): < 50 nM
NanoBRET Abs IC50 (beta-catenin (human) [2]): > 10000 nM

B19: I-11 (peptide)
peptide: Ac-[PL3]DL[B5]D[Phe(3-COOH)]AAFK[PyrS2(4)][3Thi][Bta][GlnR]-NH2
modifications: staple 1-4; bridge 10-14; reading uncertain; also: PyrS2 tied into a staple, partner not placed, printed as Ac-PL3-Asp-Leu-B5-Asp-3COOHF-Ala-Ala-Phe-Lys*3-PyrS2-3Thi-BztA-GlnR*3-NH2
IC50 (beta-catenin (human) [1]): < 50 nM
NanoBRET Abs IC50 (bin >1.5 uM) (beta-catenin (human) [2]): < 3000 nM
